Experimental data published in paper PMC4109839, “Fibrin binds to collagen and provides a bridge for αVβ3 integrin-dependent contraction of collagen gels” (Biochemical Journal, 2014).
Blank lines part the entries; values can stand above or below the binder they belong to.

Key:
[1] = molecular target: T1, PureCol native bovine dermal collagen type I (bovine, UniProt P02453 162-1217; P02465 80-1117); assay: ELISA; solid-phase assay: plates coated with 10 μg/ml native or denatured Col I, blocked with 2% BSA; biotinylated fibrinogen in 0.5% BSA in Ca2+- and Mg2+-free PBS pH 7.4, 2 h at 37°C; avidin-alkaline phosphatase; settings: both partners purified
T1 construct: collagen α1(I) chain, bovine (Bos taurus), from dermis; collagen α2(I) chain, bovine; Native triple helix; Prolines are in part hydroxylated in the tissue protein; also called Col I; native Col I; source: bought: Advanced Biomatrix (PureCol, 3 mg/ml)

[2] = molecular target: T1, PureCol native bovine dermal collagen …; assay: SPR; Col I (PureCol bovine dermal and mouse-tail tendon) coupled to a BiaCore C1 chip; freshly dissolved, filtered fibrinogen in PBS passed over the chip, then wash-out; settings: both partners purified

T1 sequence (P02453 162-1217, chain 1 of 2): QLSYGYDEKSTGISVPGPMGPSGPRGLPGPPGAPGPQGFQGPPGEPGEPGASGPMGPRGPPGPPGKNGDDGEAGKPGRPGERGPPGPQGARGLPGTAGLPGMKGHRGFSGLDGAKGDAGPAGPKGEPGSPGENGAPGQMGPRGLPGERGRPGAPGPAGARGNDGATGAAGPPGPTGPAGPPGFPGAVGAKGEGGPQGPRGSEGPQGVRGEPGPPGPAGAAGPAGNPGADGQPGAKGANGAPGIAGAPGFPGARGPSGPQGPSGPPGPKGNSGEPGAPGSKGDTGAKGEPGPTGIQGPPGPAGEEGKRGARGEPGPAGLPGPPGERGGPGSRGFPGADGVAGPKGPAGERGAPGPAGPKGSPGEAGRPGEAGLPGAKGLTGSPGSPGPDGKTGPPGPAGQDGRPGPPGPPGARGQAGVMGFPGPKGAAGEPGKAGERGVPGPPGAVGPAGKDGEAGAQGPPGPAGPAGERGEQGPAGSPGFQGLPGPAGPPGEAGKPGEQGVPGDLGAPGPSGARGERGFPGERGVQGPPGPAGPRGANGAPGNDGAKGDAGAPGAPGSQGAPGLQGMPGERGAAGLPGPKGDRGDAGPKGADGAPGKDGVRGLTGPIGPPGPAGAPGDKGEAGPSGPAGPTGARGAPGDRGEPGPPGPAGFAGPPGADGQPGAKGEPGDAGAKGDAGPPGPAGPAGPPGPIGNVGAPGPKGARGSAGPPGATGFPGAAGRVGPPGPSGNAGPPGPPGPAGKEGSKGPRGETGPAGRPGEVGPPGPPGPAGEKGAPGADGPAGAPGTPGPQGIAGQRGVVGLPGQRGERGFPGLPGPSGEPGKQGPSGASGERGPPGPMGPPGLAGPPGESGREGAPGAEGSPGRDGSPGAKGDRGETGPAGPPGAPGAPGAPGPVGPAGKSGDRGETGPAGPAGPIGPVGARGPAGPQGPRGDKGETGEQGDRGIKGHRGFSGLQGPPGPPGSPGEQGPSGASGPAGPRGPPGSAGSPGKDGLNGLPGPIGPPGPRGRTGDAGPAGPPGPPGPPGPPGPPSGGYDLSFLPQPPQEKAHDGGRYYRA
T1 sequence (P02465 80-1117, chain 2 of 2): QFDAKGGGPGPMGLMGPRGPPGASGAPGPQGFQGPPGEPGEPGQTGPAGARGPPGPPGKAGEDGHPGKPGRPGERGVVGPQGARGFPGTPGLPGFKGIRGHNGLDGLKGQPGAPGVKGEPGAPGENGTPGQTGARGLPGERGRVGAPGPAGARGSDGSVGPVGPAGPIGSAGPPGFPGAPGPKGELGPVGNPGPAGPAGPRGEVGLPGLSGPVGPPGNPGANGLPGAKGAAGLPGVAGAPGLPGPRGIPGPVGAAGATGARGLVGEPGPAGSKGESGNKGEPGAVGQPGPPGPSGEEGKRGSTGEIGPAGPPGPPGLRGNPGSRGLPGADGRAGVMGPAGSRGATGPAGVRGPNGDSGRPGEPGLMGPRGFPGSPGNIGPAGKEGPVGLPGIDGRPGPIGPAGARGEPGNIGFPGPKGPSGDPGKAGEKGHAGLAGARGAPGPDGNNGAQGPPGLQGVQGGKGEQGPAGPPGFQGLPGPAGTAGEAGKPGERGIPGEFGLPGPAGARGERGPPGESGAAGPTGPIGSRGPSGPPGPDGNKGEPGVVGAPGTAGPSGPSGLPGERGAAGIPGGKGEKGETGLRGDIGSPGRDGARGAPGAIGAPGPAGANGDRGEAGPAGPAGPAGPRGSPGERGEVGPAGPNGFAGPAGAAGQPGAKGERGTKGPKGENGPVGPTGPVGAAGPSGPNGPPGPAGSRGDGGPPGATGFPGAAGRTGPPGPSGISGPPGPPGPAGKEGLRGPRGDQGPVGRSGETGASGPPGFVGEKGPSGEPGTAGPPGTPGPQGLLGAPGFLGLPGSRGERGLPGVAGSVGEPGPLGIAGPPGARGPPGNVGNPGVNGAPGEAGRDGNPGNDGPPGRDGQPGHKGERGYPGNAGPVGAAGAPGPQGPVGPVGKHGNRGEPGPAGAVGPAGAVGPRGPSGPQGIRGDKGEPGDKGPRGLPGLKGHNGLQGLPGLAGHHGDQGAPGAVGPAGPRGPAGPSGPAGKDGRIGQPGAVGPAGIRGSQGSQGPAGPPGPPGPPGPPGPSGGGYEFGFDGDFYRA

- EC50 [1]: ~70 nM
B1: biotinylated human plasma fibrinogen (natural protein)
chain 1: ADSGEGDFLAEGGGVRGPRVVERHQSACKDSDWPFCSDEDWNYKCPSGCRMKGLIDEVNQDFTNRINKLKNSLFEYQKNNKDSHSLTTNIMEILRGDFSSANNRDNTYNRVSEDLRSRIEVLKRKVIEKVQHIQLLQKNVRAQLVDMKRLEVDIDIKIRSCRGSCSRALAREVDLKDYEDQQKQLEQVIAKDLLPSRDRQHLPLIKMKPVPDLVPGNFKSQLQKVPPEWKALTDMPQMRMELERPGGNEITRGGSTSYGTGSETESPRNPSSAGSWNSGSSGPGSTGNRNPGSSGTGGTATWKPGSSGPGSTGSWNSGSSGTGSTGNQNPGSPRPGSTGTWNPGSSERGSAGHWTSESSVSGSTGQWHSESGSFRPDSPGSGNARPNNPDWGTFEEVSGNVSPGTRREYHTEKLVTSKGDKELRTGKEKVTSGSTTTTRRSCSKTVTKTVIGPDGHKEVTKEVVTSEDGSDCPEAMDLGTLSGIGTLDGFRHRHPDEAAFFDTASTGKTFPGFFSPMLGEFVSETESRGSESGIFTNTKESSSHHPGIAEFPSRGKSSSYSKQFTSSTSYNRGDSTFESKSYKMADEAGSEADHEGTHSTKRGHAKSRPV
chain 2: QGVNDNEEGFFSARGHRPLDKKREEAPSLRPAPPPISGGGYRARPAKAAATQKKVERKAPDAGGCLHADPDLGVLCPTGCQLQEALLQQERPIRNSVDELNNNVEAVSQTSSSSFQYMYLLKDLWQKRQKQVKDNENVVNEYSSELEKHQLYIDETVNSNIPTNLRVLRSILENLRSKIQKLESDVSAQMEYCRTPCTVSCNIPVVSGKECEEIIRKGGETSEMYLIQPDSSVKPYRVYCDMNTENGGWTVIQNRQDGSVDFGRKWDPYKQGFGNVATNTDGKNYCGLPGEYWLGNDKISQLTRMGPTELLIEMEDWKGDKVKAHYGGFTVQNEANKYQISVNKYRGTAGNALMDGASQLMGENRTMTIHNGMFFSTYDRDNDGWLTSDPRKQCSKEDGGGWWYNRCHAANPNGRYYWGGQYTWDMAKHGTDDGVVWMNWKGSWYSMRKMSMKIRPFFPQQ
chain 3: YVATRDNCCILDERFGSYCPTTCGIADFLSTYQTKVDKDLQSLEDILHQVENKTSEVKQLIKAIQLTYNPDESSKPNMIDAATLKSRKMLEEIMKYEASILTHDSSIRYLQEIYNSNNQKIVNLKEKVAQLEAQCQEPCKDTVQIHDITGKDCQDIANKGAKQSGLYFIKPLKANQQFLVYCEIDGSGNGWTVFQKRLDGSVDFKKNWIQYKEGFGHLSPTGTTEFWLGNEKIHLISTQSAIPYALRVELEDWNGRTSTADYAMFKVGPEADKYRLTYAYFAGGDAGDAFDGFDFGDDPSDKFFTSHNGMQFSTWDNDNDKFEGNCAEQDGSGWWMNKCHAGHLNGVYYQGGTYSKASTPNGYDNGIIWATWKTRWYSMKKTTMKIIPFNRLTIGEGQQHHLGGAKQAGDV
modifications: biotin (biotin N-hydroxysuccinimide ester; which chains and residues not stated) | biotin (biotin N-hydroxysuccinimide ester; which chains and residues not stated) | biotin (biotin N-hydroxysuccinimide ester; which chains and residues not stated)

- EC50 [2]: ~10 nM
B2: human plasma fibrinogen (natural protein)
chain 1: ADSGEGDFLAEGGGVRGPRVVERHQSACKDSDWPFCSDEDWNYKCPSGCRMKGLIDEVNQDFTNRINKLKNSLFEYQKNNKDSHSLTTNIMEILRGDFSSANNRDNTYNRVSEDLRSRIEVLKRKVIEKVQHIQLLQKNVRAQLVDMKRLEVDIDIKIRSCRGSCSRALAREVDLKDYEDQQKQLEQVIAKDLLPSRDRQHLPLIKMKPVPDLVPGNFKSQLQKVPPEWKALTDMPQMRMELERPGGNEITRGGSTSYGTGSETESPRNPSSAGSWNSGSSGPGSTGNRNPGSSGTGGTATWKPGSSGPGSTGSWNSGSSGTGSTGNQNPGSPRPGSTGTWNPGSSERGSAGHWTSESSVSGSTGQWHSESGSFRPDSPGSGNARPNNPDWGTFEEVSGNVSPGTRREYHTEKLVTSKGDKELRTGKEKVTSGSTTTTRRSCSKTVTKTVIGPDGHKEVTKEVVTSEDGSDCPEAMDLGTLSGIGTLDGFRHRHPDEAAFFDTASTGKTFPGFFSPMLGEFVSETESRGSESGIFTNTKESSSHHPGIAEFPSRGKSSSYSKQFTSSTSYNRGDSTFESKSYKMADEAGSEADHEGTHSTKRGHAKSRPVRGIHTSPLGKPSLSP
chain 2: B1 chain 2
chain 3: B1 chain 3
notes: fibrinogen Aα-chain, human, from plasma; fibrinogen Bβ-chain, human, from plasma; fibrinogen γ-chain, human, from plasma; In the gel contraction assays it was converted into fibrin by thrombin; also called unlabelled fibrinogen; non-biotinylated fibrinogen; source: bought: Sigma-Aldrich; copies: 2 + 2 + 2
